Measured values: patent US6884600B1, “Protein phosphatase-1 catalytic subunit interactions” (Medical Research Council London, priority 1996, dated 2005)
Where two headings read alike, the source gives them in different places.

B1: M110-(D39-E309): rat aorta M110 fragment, residues 39-309, containing the seven ankyrin repeats (protein, UniProt Q10728 39-309, looked up, fragment)
chain: DDGAVFLAACSSGDTDEVLKLLHRGADINYANVDGLTALHQACIDDNVDMVKFLVENGANINQPDNEGWIPLHAAASCGYLDIAEFLIGQGAHVGAVNSEGDTPLDIAEEEAMEELLQNEVNRQGVDIEAARKEEERIMLRDARQWLNSGHISDVRHAKSGGTALHVAAAKGYTEVLKLLIQAGYDVNIKDYDGWTPLHAAAHWGKEEACRILVDNLCDMETVNKVGQTAFDVADEDILGYLEELQKKQNLLHSEKRDKKSPLIESTANME
B2: NIPP-1: nuclear inhibitor of PP1 (protein, UniProt Q12972 1-351, looked up)
Nuclear inhibitor of protein …: MAAAANSGSSLPLFDCPTWAGKPPPGLHLDVVKGDKLIEKLIIDEKKYYLFGRNPDLCDFTIDHQSCSRVHAALVYHKHLKRVFLIDLNSTHGTFLGHIRLEPHKPQQIPIDSTVSFGASTRAYTLREKPQTLPSAVKGDEKMGGEDDELKGLLGLPEEETELDNLTEFNTAHNKRISTLTIEEGNLDIQRPKRKRKNSRVTFSEDDEIINPEDVDPSVGRFRNMVQTAVVPVKKKRVEGPGSLGLEESGSRRMQNFAFSGGLYGGLPPTHSEAGSQPHGIHGTALIGGLPMPYPNLAPDVDLTPVVPSAVNMNPAPNPAVYNPEAVNEPKKKKYAKEAWPGKKPTPSLLI

Tests used:
PP1GL = assay: Phosphorylase phosphatase activity of PP1GL (hepatic glycogen particles); type: biochemical, rat; conditions: hepatic glycogen particles containing PP1-GL
Description: Hepatic glycogen particles were diluted in assay buffer to 0.6 phosphorylase phosphatase (PhP) mU per ml, incubated for 15 minutes at 30° C. with GM-(G63-T93) (closed circles), GM-(G63-K80) (open circles) or GM-(G63-N75) (closed triangles) and assayed as described in Example 1. The open triangles show the effect of GM-(G63-N75) which had been phosphorylated at Ser67 by PKA (pGM-(G63-N75)). Similar results were obtained in four experiments.
(A) Hepatic glycogen protein particles containing PP1-GL were diluted and incubated for 15 min at 30° C. with the indicated concentrations of either M110[M1-F38] (open circles) or M110[M1-K35] (closed circles) and the phosphatase reactions were initiated by addition of ^32P-labelled glycogen phosphorylase. The results are expressed as a percentage of the activity determined in control incubations where the M110 peptides were omitted. Similar results were obtained in three separate experiments. (B) The experiment was carried out as in (A), except that the peptide GM[G63-N75] (“wild type”, WT) and variants in which either Val 66 (V66A) (closed triangles) or Phe 68 (F68A) (closed circles) were changed to Ala, were used instead of the M110 peptides. Similar results were obtained in three separate experiments.
The myosin-associated form of PP1 (PP1M) was from chicken gizzard and the glycogen-associated form of PP1 (PP1G) from rabbit skeletal muscle. […]

PP1c [1] = target: T1, PP1c (Oryctolagus cuniculus, UniProt P62143); assay: Phosphorylase phosphatase activity of PP1c; type: biochemical, rabbit
T1 construct: from tissue; host or cells: rabbit skeletal muscle (PP1G dissociated with LiBr)
T1 sequence (P62143 whole entry): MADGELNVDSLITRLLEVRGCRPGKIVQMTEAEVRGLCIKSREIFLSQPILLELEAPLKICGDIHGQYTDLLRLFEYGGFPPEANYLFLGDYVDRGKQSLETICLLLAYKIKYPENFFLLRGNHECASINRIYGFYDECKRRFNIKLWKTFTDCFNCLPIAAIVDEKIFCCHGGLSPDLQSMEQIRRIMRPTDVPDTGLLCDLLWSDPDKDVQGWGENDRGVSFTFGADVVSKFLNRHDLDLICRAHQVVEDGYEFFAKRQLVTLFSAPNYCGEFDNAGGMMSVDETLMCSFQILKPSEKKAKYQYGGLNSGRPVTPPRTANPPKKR
Description: (§1) A,B; Effects of M110-(M1-E309) (closed circles), M110-(M1-F38) (open circles) and M110-(D39-E309) (open triangles) on the MLC20 phosphatase […] and phosphorylase phosphatase (B) activities of PP1c were measured after incubating PP1c for 15 minutes at 30° C. with each fragment. The results are presented as a percentage of those obtained in experiments where the M110 fragments were omitted.
(§2) C,D; The effect of M110-(M1-A150) (open circles) and M110-(L24-Y496) (closed circles) on the MLC20 phosphatase (C) and phosphorylase phosphatase (D) activities of PP1c were measured as in A,B.
(B) The phosphorylase phosphatase activity of PP1c was assayed as in A in the presence or absence of 1 μM GM-(G63-T93) and 1.0 nM M110-(M1-E309). The results are presented (SEM for three experiments) as a percentage of the PP1c activity measured in the absence of GM-(63-T93), M110-(M1-F38) or M110-(M1-E309).
(§3) The myosin-associated form of PP1 (PP1M) was from chicken gizzard and the glycogen-associated form of PP1 (PP1G) from rabbit skeletal muscle. The β isoform of PP1c was released from PP1G by incubation for 2 hours in 2M LiBr, then purified by gel-filtration on a 30×1 cm column of Superose 12 (Pharmacia, Milton Keynes, U.K.) in the presence of 0.5M LiBr. Glycogen protein particles from rat liver were used as the source of hepatic PP1G Digoxygenin-labelled PP1c (γ1-isoform, hereafter termed PP1) was prepared as in [9]. GL was expressed in E. coli as a glutathione-S-transferase (GST) fusion protein [7], termed GST-GL. The catalytic subunit of PP2A from bovine heart (PP2AC) was provided by Dr R. MacKintosh in this Unit. The phosphorylatable myosin light chain (MLC20) and heavy meromyosin from chicken gizzard were a gift from Dr M. Ikebe (Case Western Reserve University, Cleveland, USA). Thrombin and benzamidine-Agarose were purchased from Sigma (Poole, UK).
(§4) ^32P-labelled rabbit skeletal muscle phosphorylase a (containing 1.0 mol phosphate per mol subunit) was prepared by phosphorylation with phosphorylase kinase, ^32P-labelled rabbit skeletal muscle glycogen synthase (containing 1.5 mol/mol subunit in the sites 3 region) was prepared by phosphorylation with glycogen synthase kinase-3 [24]). ^32P-labelled chicken gizzard MLC20 and ^32P-labelled chicken gizzard heavy meromyosin (containing 1.0 mol phosphate per mol subunit) were prepared by phosphorylation with smooth muscle myosin light chain kinase. The dephosphorylation of phosphorylase a (10 μM), glycogen synthase (1 μM) and MLC20 (1 μM) and heavy meromyosin (1 μM) was carried out as in [24]. One unit of activity (U) was that amount which released […] of phosphate in one minute.
(§5) PP1c was isolated from the rabbit skeletal muscle PP1-GM complex as described previously (Johnson et al, 1996). Glycogen particles isolated from rat liver (Schelling el al, 1988) served as the source of PP1-GL. The dephosphorylation of glycogen phosphorylase (10 μM) and the isolated MLC20 of smooth muscle myosin (1 μM) by PP1c was carried out as described previously (Cohen et al., 1988; Alessi et al., 1992).

PP1c [2] = target: T1, PP1c; assay: MLC20 (myosin P-light chain) phosphatase activity of PP1c; type: biochemical
Description: as §1, §2
(A) The MLC20 phosphatase activity of PP1c was assayed after incubation for 15 minutes at 30° C. in the presence or absence of 1 μM GM-(G63-T93) and either 0.1 μM M110-(M1-F38) or 0.1 nM M110-(M1-E309).
(1-38, open circles) or M110[M1-K35] (1-35, closed circles) were incubated with PP1c for 15 min at 30° C. and reactions started with the ^32P-labelled MLC20 substrate. The results are expressed as a % of the activity determined in control incubations where the M110 peptides were omitted (100%). Similar results were obtained in three separate experiments.
as §3, §4, §5
^32P-labelled myosin P-light chains containing 1.0 mol phosphate per mol subunit was prepared by phosphorylation with smooth muscle myosin light chain kinase. The dephosphorylation of myosin P-light chain (1 μM) was carried out as in [4] and one unit of activity (U) was that amount which catalysed the release of 1 μmole of phosphate in one min. When assaying PP1M in immunoprecipitates from the myofibrillar extracts, the tubes were shaken continuously and 3 nM okadaic acid was included to inhibit any PP2A present.

PP1 = conditions: Beullens et al., 1992; read-out: inhibitory constant for PP1; cited from earlier work

Molecule | effect on the phosphorylase phosphatase activity of PP1GL (PP1GL) | effect on the phosphorylase phosphatase activity of PP1c (PP1c [1]) | effect on the phosphorylase phosphatase activity of PP1c (PP1c [1]; each peptide individually, at concentrations up to 1 μM) | effect on the MLC20 phosphatase activity of PP1c (PP1c [2]) | Ki (PP1) [pM]
B1 | can enhance the phosphorylase activity of PP1GL | did not inhibit the phosphorylase phosphatase activity of PP1c | no effect | failed to stimulate the MLC20 phosphatase activity of PP1c | –
B2 | – | – | – | – | 1
